We go through 14 sequences from the DeepSol protein solubility set.

This series is described as follows: soluble on expression in E. coli; label from the status in PepcDB or PDB records.
Take “MGFFSGQFSNVVEWEEFREDMIFWKWHNREIKRGSKLIIRPGQDAIFLFNGRIEGIFKDEGDYDIESQIIPFLSTLQGFKFGFNSGMRAEVLFVNTKEFTAKWGTKSAINIPTPQLPGGIPIRANGTFTFKVNDYVKLIDRIAGVKDSFLVEDVRLRIMALLDQLMMKWIVQEGRDMFNLQSNSFAIADGLKTDLDMQIYDMGITVSQLTIMSFTYPEEIQQMIAKAASHTMIGDMGRYQQVSVLDGIAGGKGQGGSAAADMAGMAIGMQMANEMIKGVTSPQREQTQGRGSHAPQGGSEPGLIKPNFCPNCGQKTDGANFCSNCGQKLVLEHHHHHH”: the “soluble on expression in E. coli” value was “soluble”. To “MPSWREKHEKIVQSKILVIGAGGIGCELLKNLAVTGFRKVHVIDLDTIDISNLNRQFLFRKEHVSSSKAATATQVVKQFCPQIELTFDHDSIFEKKYNMEFFQAYDIVLNALDNRAARNYVNRMCHAANRPLIDSGSGGYFGQVSVIMRGKTECYECVDKPVQQTTYPGCTIRNTPSEHIHCTVWAKHVFNQLFGEVDIDDDVSPDMDAVDPDNTEAVTTEKEKEAMKEEPAPVGTRQWAESVDYDAAKVFDKLFLHDIEYLCKMEHLWKQRKRPSPLEFHTASSTGGEPQSLCDAQRDDTSIWTLSTCAKVFSTCIQELLEQIRAEPDVKLAFDKDHAIIMSFVAACANIRAKIFGIPMKSQFDIKAMAGNIIPAIASTNAIVAGIIVTEAVRVIEGSTVICNSSIATTQSNPRGRVRFYGFFN” belongs “not soluble”; to “LLSDYYHKRFGVDTRSVRFPGLISNVTLPGGGTTDYAVDIYYAAVKEGRFTCPIKEGTYMDMMYMPDALRACVELMEADPARLVHRNSFNITAMSFEPSQIAAAVKKLVPDFVMNYEVDPLRQGIAESWPNSLDDSCARSEWDWKPDYDLDSMSADMIQILKARYGK”, “not soluble”; to “SRILVSIGESFGTSEKFQKINQMVCNSDRVLKRSAEGSNPPKPLKK”, “soluble”. To “VDREQLVQKARLAEQAERYDDMAAAMKNVTELNEPLSNEERNLLSVAYKNVVGARRSSWRVISSIEQKTSADGNEKKIEMVRAYREKIEKELEAVCQDVLSLLDNYLIKNCSETQYESKVFYLKMKGDYYRYLAEVATGEKRATVVESSEKAYSEAHEISKEHMQPTHPIRLGLALNYSVFYYEIQNAPEQACHLAKTAFDDAIAELDTLNEDSYKDSTLIMQLLRDNLTLWTSDQQDDDGGEGNN” belongs “soluble”; to “MGSDKIHHHHHHMFRPQDDFTYLMPVHFGGGKFDPETLVTQKATALSLSFETERDLLENYIPEGFELLAPEVQVAFNKFTEINWLHGGQYNLINVAAPVRFHGKKDELDGAYTLVVWENKTAPILGGREQTGIPKIYADIEDLHIVRPHFATTVSYEGNTFLNMDFEATGSITGRDLDALKSQFLTMNTLGWRYIPKVGAPGAELSQFVLYPQGMEVETAEVGKGSLKWTELTPMQSPAQYYIVNSLASLPIKRVTQAVLVEGRAILRAMGARVIE”, “not soluble”; to “MAHHHHHHMSCITSPPQPSSPPRMDAHTCVCIGITMPPAARQRKGARRSLTLPLLSLPWRKIRDQEGGAVCAGPVQQLPWKVRAEAALQSRPSPPAIRRRYLALSLPMRTSAAAAVAAAAHAGVRALHTATGVAGNSCGASPRATVALPPHSGLTLPSFTRCGASSAAFITRAHSVGCCGCAAAVKQHRLYSSHGCSSNSSGSFADSSRPYVPGQAVQETYPIIQLPARSLWCRQYALDARRVAQGEYAGLISQVREARHYYQYPSMSAPQTGWNVQMFTLFDNSVFINPVNLDEEVWRAEAARQGMSWVAFEEEKMRELRAEGLTGFAWEPCASSGFLLHYIERPLTVRMRALDEHGKPFTVTLDKMRARMALHELDHLQGVLFTRRVVDTDHVVPMEGFVTMSDWSDDYPSLEARSTFLYTIFTPPYHFVSDAVPDGNLLDRKFEDGIYPGCEQDRQQRIELTAMEEIQRNVWRKEKAKRKEGGQQCGRGDVTAVEDDDGSGAAGAR”, “not soluble”. To “MAHHHHHHMAALQHVNSATEITPLLACGGDYVKNGTQTLSIPSVYATLDALESLWQAQREKQHLSVRGRAQGLRHYHAVYEASARCVPLSLTRWEQWLAGLSEQGARSTVGACPDELSSSSSPHVQRVQKELVDSYWHLYRRLCWGSSGAAKAGLAAVLEHTDSAASGLPSVMATGAASLLAKQEAALAKPLQAFARLSADRHTCSPITR” belongs “not soluble”; to “DEGYWDCSVCTFRNSAEAFKCMMCDVRKGTSTRKPRPVSQ”, “soluble”; to “SLYRIVLGKVSTLSAAPLPPGLREQAPQGPRRERWLAGRALLSHTLSPLPEIIYGEQGKPAFAPETPLWFNLSHSGDDIALLLSDEGEVGCDIEVIRPRANWRWLANAVFSLGEHAEMDAVHPDQQLEMFWRIWTRKEAIVKQRGGSAWQIVSVDSTYHSSLSVSHCQLENLSLAICTPTPFTLTADSVQWIDSVN”, “not soluble”.

As to “METQDHTLYVLLGPTGVGKTDLSLDIAERLGSPIISADSRQIFRELPIGTAAPTPEQRAKVPHLFVGTHSVRDYYSAGMYEVEVLEALKELFRKYRGVLLTGGSMMYIDAVCRGIDDIPDPFPEVREELYARYAAEGLDGILAQLRLLDPDYYAKVDRRNYKRVIHGLEICLSTGRPFSSFHRHEAKERPFRIVKIGLYREREELCKRIDARVLEMMEQGLEEEARAVYPLRHLNALNTVGYKEMFEYFDGSIDRAEAVRRIQRNSRVYARKQMTWFRRDSTIRWFHPEADKGTVLTLVT”, the “soluble on expression in E. coli” value is “not soluble”. Take “MGSDKIHHHHHHMADYQQMWANLGMDLEKHDVLCEVLPEAFGGVYLTQQDRPKGMDFYDFVVSEIHGVRPAEMLQHQKEGGKVFGTFCVYVPDEVVFAAGGIAAGLCGGSQFWVSGGEKVLPANTCPLIKASVGARLDKTCPFFLIPDMYVAENTCDGKKKAWEILAGEVPMHIIDIPQMKRERDVAAFAAEIRDFIGVVEKVTGKKINAESLGEAIKLINNKRRALQRVYNARKASPVPISGKDALLVTQINFYDDPARAAQMANNLADELEQRINNGTGVFPENAPRIMISGTPMAIPNWKLHHIVESLGAAIVVEESCTGTRYFENLVDETASTLDEQIRALAERYMKTNCACFTPNSARIDDIIRLADEYKVDGIIDTNLQFCNLYSTESYLIKQVMTERNLPIIHIETDYSEQDFEQLRTRVEAFLEMLRK”: the “soluble on expression in E. coli” value is recorded as “not soluble”. “RTDTIMVLHIPSSGKATLMSIPRDSYVEIPGYGMDKINASFTYGGAPLLTQTVENATGLRINHYAEIGMGGLANVVDAVGGIEVCPAEPIDDPLAGLNIAAGCQKVDGPTALGYVRTRHTALGDLDRVQRQREFFAALVNKVTS”: the “soluble on expression in E. coli” value is on record as “not soluble”. To “GAMGMTTYLEFIQQNEERDGVRFSWNVWPSSRLEATRMVVPVAALFTPLKERPDLPPIQYEPVLCSRTTCRAVLNPLCQVDYRAKLWACNFCYQRNQFPPSYAGISELNQPAELLPQFSSIEYVVLRGPQMPLIFLYVVDTCMEDEDLQALKESMQMSLSLLPPTALVGLITFGRMVQVHELGCEGISKSYVFRGTKDLSAKQLQEMLGLSKVPVTQATRGPQVQQPPPSNRFLQPVQKIDMNLTDLLGELQRDPWPVPQGKRPLRSSGVALSIAVGLLECTFPNTGARIMMFIGGPATQGPGMVVGDELKTPIRSWHDIDKDNAKYVKKGTKHFEALANRAATTGHVIDIYACALDQTGLLEMKCCPNLTGGYMVMGDSFNTSLFKQTFQRVFTKDMHGQFKMGFGGTLEIKTSREIKISGAIGPCVSLNSKGPCVSENEIGTGGTCQWKICGLSPTTTLAIYFEVVNQHNAPIPQGGRGAIQFVTQYQHSSGQRRIRVTTIARNWADAQTQIQNIAASFDQEAAAILMARLAIYRAETEEGPDVLRWLDRQLIRLCQKFGEYHKDDPSSFRFSETFSLYPQFMFHLRRSSFLQVFNNSPDESSYYRHHFMRQDLTQSLIMIQPILYAYSFSGPPEPVLLDSSSILADRILLMDTFFQILIYHGETIAQWRKSGYQDMPEYENFRHLLQAPVDDAQEILHSRFPMPRYIDTEHGGSQARFLLSKVNPSQTHNNMYAWGQESGAPILTDDVSLQVFMDHLKKLAVSSAA” belongs “soluble”.
